We go through 23 molecules from PMC10786891, “Massively parallel profiling of RNA-targeting CRISPR-Cas13d”.

Sequences and labels used below:
T1: EsCas13d, nuclease-dead (Eubacterium siraeum, UniProt B0MS50, R295A;H300A;R849A;H854A)
T1 sequence: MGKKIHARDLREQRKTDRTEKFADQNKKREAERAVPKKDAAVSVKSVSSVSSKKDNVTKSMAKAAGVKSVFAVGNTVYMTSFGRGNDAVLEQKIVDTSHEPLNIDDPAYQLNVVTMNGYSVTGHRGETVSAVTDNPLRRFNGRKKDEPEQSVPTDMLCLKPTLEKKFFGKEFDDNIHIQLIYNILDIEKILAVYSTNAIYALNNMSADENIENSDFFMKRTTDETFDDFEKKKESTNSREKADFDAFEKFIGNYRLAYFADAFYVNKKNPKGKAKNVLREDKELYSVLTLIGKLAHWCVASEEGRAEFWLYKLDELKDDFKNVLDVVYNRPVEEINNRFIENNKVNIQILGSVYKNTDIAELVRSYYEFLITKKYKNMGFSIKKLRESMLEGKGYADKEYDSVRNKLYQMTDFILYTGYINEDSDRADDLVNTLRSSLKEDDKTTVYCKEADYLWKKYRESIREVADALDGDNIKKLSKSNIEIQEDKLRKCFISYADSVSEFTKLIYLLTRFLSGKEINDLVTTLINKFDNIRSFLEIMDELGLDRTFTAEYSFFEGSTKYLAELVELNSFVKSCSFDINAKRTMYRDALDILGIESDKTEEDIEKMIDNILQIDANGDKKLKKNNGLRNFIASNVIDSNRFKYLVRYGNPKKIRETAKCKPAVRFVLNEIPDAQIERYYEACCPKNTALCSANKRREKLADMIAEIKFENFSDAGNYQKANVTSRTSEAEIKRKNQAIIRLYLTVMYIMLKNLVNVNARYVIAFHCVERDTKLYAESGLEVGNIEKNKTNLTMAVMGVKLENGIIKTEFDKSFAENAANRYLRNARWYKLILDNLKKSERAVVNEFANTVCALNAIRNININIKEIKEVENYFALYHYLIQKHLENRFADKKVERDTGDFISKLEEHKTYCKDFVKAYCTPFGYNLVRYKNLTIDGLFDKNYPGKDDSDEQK

B1: target 1 A1U,U3A (mixed)
RNA 1: CACCCGUGCAAAAAUGCAGGGGUCUAAAACUGAGCGGAUAACCUCUCUAUGG
RNA 2: GGGAAUGGAUCCACAUCUACGAAUUCGUACCAUAGAGAGGUUAUCCGCACUCCGAGAUCGGAAGAGCACACGU
B2: target 1 U3A (mixed)
RNA 1: CACCCGUGCAAAAAUGCAGGGGUCUAAAACUGAGCGGAUAACCUCUCUAUGG
RNA 2: GGGAAUGGAUCCACAUCUACGAAUUCGUACCAUAGAGAGGUUAUCCGCACACCGAGAUCGGAAGAGCACACGU
B3: target 1 insG 3' of 16,insU 3' of 1 (mixed)
RNA 1: CACCCGUGCAAAAAUGCAGGGGUCUAAAACUGAGCGGAUAACCUCUCUAUGG
RNA 2: GGGAAUGGAUCCACAUCUACGAAUUCGUACCAUAGAGGAGGUUAUCCGCUCAUCCGAGAUCGGAAGAGCACACGU
B4: target 1 C4U,A9C (mixed)
RNA 1: CACCCGUGCAAAAAUGCAGGGGUCUAAAACUGAGCGGAUAACCUCUCUAUGG
RNA 2: GGGAAUGGAUCCACAUCUACGAAUUCGUACCAUAGAGAGGUUCUCCGUUCACCGAGAUCGGAAGAGCACACGU
B5: target 1 U3G,G12A (mixed)
RNA 1: CACCCGUGCAAAAAUGCAGGGGUCUAAAACUGAGCGGAUAACCUCUCUAUGG
RNA 2: GGGAAUGGAUCCACAUCUACGAAUUCGUACCAUAGAGAGAUUAUCCGCGCACCGAGAUCGGAAGAGCACACGU
B6: target 1 insG 3' of 8,insA 3' of 4 (mixed)
RNA 1: CACCCGUGCAAAAAUGCAGGGGUCUAAAACUGAGCGGAUAACCUCUCUAUGG
RNA 2: GGGAAUGGAUCCACAUCUACGAAUUCGUACCAUAGAGAGGUUAUGCCGCAUCACCGAGAUCGGAAGAGCACACGU
B7: target 1 U8C,A9U (mixed)
RNA 1: CACCCGUGCAAAAAUGCAGGGGUCUAAAACUGAGCGGAUAACCUCUCUAUGG
RNA 2: GGGAAUGGAUCCACAUCUACGAAUUCGUACCAUAGAGAGGUUUCCCGCUCACCGAGAUCGGAAGAGCACACGU
B8: target 1 A1C,U3A (mixed)
RNA 1: CACCCGUGCAAAAAUGCAGGGGUCUAAAACUGAGCGGAUAACCUCUCUAUGG
RNA 2: GGGAAUGGAUCCACAUCUACGAAUUCGUACCAUAGAGAGGUUAUCCGCACCCCGAGAUCGGAAGAGCACACGU
B9: target 1 insA 3' of 22,insC 3' of 13 (mixed)
RNA 1: CACCCGUGCAAAAAUGCAGGGGUCUAAAACUGAGCGGAUAACCUCUCUAUGG
RNA 2: GGGAAUGGAUCCACAUCUACGAAUUCGUACACAUAGAGAGCGUUAUCCGCUCACCGAGAUCGGAAGAGCACACGU
B10: target 1 insU 3' of 21,insG 3' of 8 (mixed)
RNA 1: CACCCGUGCAAAAAUGCAGGGGUCUAAAACUGAGCGGAUAACCUCUCUAUGG
RNA 2: GGGAAUGGAUCCACAUCUACGAAUUCGUACCUAUAGAGAGGUUAUGCCGCUCACCGAGAUCGGAAGAGCACACGU
B11: target 1 del1,del4 (mixed)
RNA 1: CACCCGUGCAAAAAUGCAGGGGUCUAAAACUGAGCGGAUAACCUCUCUAUGG
RNA 2: GGGAAUGGAUCCACAUCUACGAAUUCGUACCAUAGAGAGGUUAUCCGUCCCGAGAUCGGAAGAGCACACGU
B12: target 1 del2,del4 (mixed)
RNA 1: CACCCGUGCAAAAAUGCAGGGGUCUAAAACUGAGCGGAUAACCUCUCUAUGG
RNA 2: GGGAAUGGAUCCACAUCUACGAAUUCGUACCAUAGAGAGGUUAUCCGUACCGAGAUCGGAAGAGCACACGU
B13: target 1 insU 3' of 7,insG 3' of 3 (mixed)
RNA 1: CACCCGUGCAAAAAUGCAGGGGUCUAAAACUGAGCGGAUAACCUCUCUAUGG
RNA 2: GGGAAUGGAUCCACAUCUACGAAUUCGUACCAUAGAGAGGUUAUCUCGCUGCACCGAGAUCGGAAGAGCACACGU
B14: target 1 C7U,G15A (mixed)
RNA 1: CACCCGUGCAAAAAUGCAGGGGUCUAAAACUGAGCGGAUAACCUCUCUAUGG
RNA 2: GGGAAUGGAUCCACAUCUACGAAUUCGUACCAUAGAAAGGUUAUUCGCUCACCGAGAUCGGAAGAGCACACGU
B15: target 1 insC 3' of 10,insA 3' of 8 (mixed)
RNA 1: CACCCGUGCAAAAAUGCAGGGGUCUAAAACUGAGCGGAUAACCUCUCUAUGG
RNA 2: GGGAAUGGAUCCACAUCUACGAAUUCGUACCAUAGAGAGGUUCAUACCGCUCACCGAGAUCGGAAGAGCACACGU
B16: target 1 U8G,A20C (mixed)
RNA 1: CACCCGUGCAAAAAUGCAGGGGUCUAAAACUGAGCGGAUAACCUCUCUAUGG
RNA 2: GGGAAUGGAUCCACAUCUACGAAUUCGUACCCUAGAGAGGUUAGCCGCUCACCGAGAUCGGAAGAGCACACGU
B17: target 1 del2,del17 (mixed)
RNA 1: CACCCGUGCAAAAAUGCAGGGGUCUAAAACUGAGCGGAUAACCUCUCUAUGG
RNA 2: GGGAAUGGAUCCACAUCUACGAAUUCGUACCAUAAGAGGUUAUCCGCUACCGAGAUCGGAAGAGCACACGU
B18: target 1 insU 3' of 15,insG 3' of 8 (mixed)
RNA 1: CACCCGUGCAAAAAUGCAGGGGUCUAAAACUGAGCGGAUAACCUCUCUAUGG
RNA 2: GGGAAUGGAUCCACAUCUACGAAUUCGUACCAUAGAGUAGGUUAUGCCGCUCACCGAGAUCGGAAGAGCACACGU
B19: target 1 C4G,A18G (mixed)
RNA 1: CACCCGUGCAAAAAUGCAGGGGUCUAAAACUGAGCGGAUAACCUCUCUAUGG
RNA 2: GGGAAUGGAUCCACAUCUACGAAUUCGUACCAUGGAGAGGUUAUCCGGUCACCGAGAUCGGAAGAGCACACGU
B20: target 1 A1C,U11C (mixed)
RNA 1: CACCCGUGCAAAAAUGCAGGGGUCUAAAACUGAGCGGAUAACCUCUCUAUGG
RNA 2: GGGAAUGGAUCCACAUCUACGAAUUCGUACCAUAGAGAGGCUAUCCGCUCCCCGAGAUCGGAAGAGCACACGU
B21: target 1 C6G,A9G (mixed)
RNA 1: CACCCGUGCAAAAAUGCAGGGGUCUAAAACUGAGCGGAUAACCUCUCUAUGG
RNA 2: GGGAAUGGAUCCACAUCUACGAAUUCGUACCAUAGAGAGGUUGUCGGCUCACCGAGAUCGGAAGAGCACACGU
B22: target 1 U11C (mixed)
RNA 1: CACCCGUGCAAAAAUGCAGGGGUCUAAAACUGAGCGGAUAACCUCUCUAUGG
RNA 2: GGGAAUGGAUCCACAUCUACGAAUUCGUACCAUAGAGAGGCUAUCCGCUCACCGAGAUCGGAAGAGCACACGU
B23: target 1 A1U,U3C (mixed)
RNA 1: CACCCGUGCAAAAAUGCAGGGGUCUAAAACUGAGCGGAUAACCUCUCUAUGG
RNA 2: GGGAAUGGAUCCACAUCUACGAAUUCGUACCAUAGAGAGGUUAUCCGCCCUCCGAGAUCGGAAGAGCACACGU

The target in this data set is T1, EsCas13d, nuclease-dead. Nature of the data set: crRNA (strand 1, pre-loaded); Mg2+; 40 mM Tris-HCl pH 7.5, 150 mM NaCl, 6 mM MgCl2, 1 mM DTT, 0.1% Tween-20, 0.2 mg/ml BSA; 25 C; 10 min per concentration, then washed. The note with it: tags: His6-TwinStrep-SUMO cleaved; N-terminal SNAP kept (SNAP-Surface 488); label: 3' end held by stalled T7 RNA polymerase.
As for B1, the Kd turned out to be 7.2 ± 0.6 nM.

The molecule B2 displayed a Kd of 15 ± 1.3 nM.

Consider B3, for which binding was characterised by a dissociation constant (Kd) of 16 ± 1.3 nM.

Molecule B4 displayed a Kd of 26 ± 4 nM.

In the case of B5, the affinity, expressed as Kd, was 4 ± 0.5 nM.

In turn, B6 returned a Kd of 12 ± 0.7 nM.

For B7, the affinity, expressed as Kd, was 20.5 ± 0.8 nM.

B8: the affinity, expressed as Kd, was 37 ± 7 nM.

Take B9: the Kd was 22 ± 1.3 nM.

The molecule B10 had a Kd of 34.9 ± 3 nM.

With B11, the Kd came to 42 ± 8 nM.

As to B12, the Kd was 42 ± 10 nM.

With B13, binding was put at a Kd of 5.45 ± 0.31 nM.

B14 registered a Kd of 9.8 ± 0.6 nM.

For the molecule B15, the affinity, expressed as Kd, was 18.8 ± 0.8 nM.

B16 yielded a Kd of 91 ± 34 nM.

Turning to B17, the Kd was approximately 70 nM.

Molecule B18 came in with a Kd of 18.3 ± 1.7 nM.

For the molecule B19, the Kd was 36 ± 12 nM.

Regarding B20, the Kd is 22 ± 4 nM.

B21 gave a dissociation constant Kd of 10.6 ± 0.9 nM.

B22 registered a Kd of 8.9 ± 0.6 nM.

On to B23, for which the Kd stood at 20.9 ± 1.9 nM.

A word on the Kd: it is the equilibrium constant for the complex coming apart. Lower therefore signals a tighter complex.
